# Measurements reported in article PMC1635298.
# Like-named read-outs stand apart in the source and are kept apart here.
# T1: Slx5-Slx8 complex, Slx8 subunit;Slx5 (Saccharomyces cerevisiae;Saccharomyces …, UniProt P40072;P32828 1-274;1-619, |)
# T1 sequence 1: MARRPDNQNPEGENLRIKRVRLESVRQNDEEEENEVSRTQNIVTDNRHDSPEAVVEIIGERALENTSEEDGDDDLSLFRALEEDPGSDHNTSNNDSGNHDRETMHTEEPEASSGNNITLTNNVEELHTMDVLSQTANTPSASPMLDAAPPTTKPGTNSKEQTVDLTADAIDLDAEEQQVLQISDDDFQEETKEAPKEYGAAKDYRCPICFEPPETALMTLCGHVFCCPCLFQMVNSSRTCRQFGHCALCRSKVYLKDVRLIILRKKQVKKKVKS
# T1 sequence 2: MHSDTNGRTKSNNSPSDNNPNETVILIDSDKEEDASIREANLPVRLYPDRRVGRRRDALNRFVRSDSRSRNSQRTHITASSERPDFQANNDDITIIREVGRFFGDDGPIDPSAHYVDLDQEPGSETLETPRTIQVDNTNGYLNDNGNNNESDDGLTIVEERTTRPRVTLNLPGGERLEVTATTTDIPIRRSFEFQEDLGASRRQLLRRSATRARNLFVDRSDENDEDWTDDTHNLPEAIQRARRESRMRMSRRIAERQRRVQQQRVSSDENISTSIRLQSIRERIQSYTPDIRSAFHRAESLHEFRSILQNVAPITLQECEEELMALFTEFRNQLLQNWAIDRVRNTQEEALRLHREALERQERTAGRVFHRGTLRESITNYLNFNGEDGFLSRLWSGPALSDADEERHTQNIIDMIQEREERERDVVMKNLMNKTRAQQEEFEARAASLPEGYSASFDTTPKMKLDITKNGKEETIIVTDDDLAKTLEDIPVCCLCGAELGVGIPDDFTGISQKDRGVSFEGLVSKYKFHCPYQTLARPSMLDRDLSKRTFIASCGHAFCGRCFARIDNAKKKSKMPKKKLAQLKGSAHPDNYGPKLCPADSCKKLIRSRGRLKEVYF
# T2: Slx5 (Saccharomyces cerevisiae, UniProt P32828 1-619)
# T2 sequence: T1 sequence 2
# T3: Slx8 (Saccharomyces cerevisiae, UniProt P40072 1-274)
# T3 sequence: T1 sequence 1
# B1: 90 bp dsDNA (1317/1319) (dsDNA)
# DNA 1: GATCCGAATTCTGGCTTGCTAGGACATCTTTGCCCACGTTGACCCGGGTTGGCGTTAGGAGATAGTCAGTTATAGCTGCGGCTGCTAAGG
# DNA 2: GATCCCTTAGCAGCCGCAGCTATAACTGACTATCTCCTAACGCCAACCCGGGTCAACGTGGGCAAAGATGTCCTAGCAAGCCAGAATTCG
# B2: 30 bp dsDNA (1313/1314) (dsDNA)
# DNA 1: TGGCGTTAGGAGATACCGATAAGCTTCGGC
# DNA 2: GCCGAAGCTTATCGGTATCTCCTAACGCCA
# B3: 45 bp dsDNA (1315/1316) (dsDNA)
# DNA 1: GGGTCAACGTGGGCAAAGATGTCCTAGCAAGCCAGAATTCGGCAG
# DNA 2: CTGCCGAATTCTGGCTTGCTAGGACATCTTTGCCCACGTTGACCC
# B4: 15 bp dsDNA (1312/1320) (dsDNA)
# DNA 1: TATCTCCTAACGCCA
# DNA 2: TGGCGTTAGGAGATA
# Experiments:
# Experiment in all cases: EMSA
# [1] = target: T1, Slx5-Slx8 complex, Slx8 subunit;Slx5
# [2] = target: T1, Slx5-Slx8 complex, Slx8 subunit;Slx5; remark: listed apart in the source
# [3] = target: T1, Slx5-Slx8 complex, Slx8 subunit;Slx5; remark: listed apart in the source
# Slx5 = target: T2, Slx5
# [4] = target: T1, Slx5-Slx8 complex, Slx8 subunit;Slx5; remark: listed apart in the source
# Slx8 = target: T3, Slx8
# [5] = target: T1, Slx5-Slx8 complex, Slx8 subunit;Slx5; remark: listed apart in the source
binder,measurement,setting,value
B1,binding result,[1],binds
GACGCTGCCGAATTCTGGCGTTAGGAGATACCGATAAGCTTCGGCTTAA (ssDNA) [49 nt ssDNA (888)],binding result,[2],no binding
B2,binding result,[3],binds
B3,binding result,Slx5,no binding
same,apparent K (half saturation),[4],< 0.5 pmol (in reaction; standard volume 20 uL)
same,apparent K (half saturation),Slx8,~8 pmol (in reaction; standard volume 20 uL)
B4,binding result,[5],no binding
